# Laboratory results published in patent US6555107.
# Target: human CXCR4 (human) (UniProt P61073)
# Assay: cell-based or functional assay
# UniProt P61073, sequence (P61073 whole entry): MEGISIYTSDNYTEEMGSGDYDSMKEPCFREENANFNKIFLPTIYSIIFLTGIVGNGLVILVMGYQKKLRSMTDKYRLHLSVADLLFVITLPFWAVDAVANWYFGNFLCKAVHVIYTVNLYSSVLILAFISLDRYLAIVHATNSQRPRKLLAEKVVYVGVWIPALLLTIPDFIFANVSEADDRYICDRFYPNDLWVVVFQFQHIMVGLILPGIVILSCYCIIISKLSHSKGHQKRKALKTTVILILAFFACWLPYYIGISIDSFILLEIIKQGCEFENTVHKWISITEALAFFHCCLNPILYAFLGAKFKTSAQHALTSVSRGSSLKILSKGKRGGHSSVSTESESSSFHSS
substance,measurement,value
"FIV envelope protein (product of the env gene of FIV clone 34TF10, Petaluma strain) (from UniProt P16090 1-856)",infectivity of replication-competent 34TF10 on CRFK.CXCR4 against CRFK cells (focal infectivity assay),8 fold
same,titer of FIV Env-enveloped CTRZLb vector on CRFK.CXCR4 cells (transducing units/ml),360
